Reference: the Human Domainome abundance scans (Beltran et al. 2025)
± gives the uncertainty stated by the source.

B1: Pituitary-specific positive transcription factor 1, residues 130 to 198; numbered along this chain, P28069 (parent)
chain: RELEKFANEFKVRRIKLGYTQTNVGEALAAVHGSEFSQTTICRFENLQLSFKNACKLKAILSKWLEEAE

Variants of: B1
Assay: abundance fitness (aPCA) (normalised: wild type 0, dead -1); higher = more abundant; growth selection in yeast, the domain comes from the species named
Conditions: Homo sapiens

| Variant | abundance fitness |
| --- | --- |
| L61Q | -0.78 ± 0.18 |
| Q48E | -0.003 ± 0.07 |
| G33Y | -0.96 ± 0.21 |
| L65D | -0.85 ± 0.19 |
| A30V | -0.444 ± 0.087 |
| K52N | -0.024 ± 0.058 |
| N23F | 0.145 ± 0.095 |
| N23M | 0.392 ± 0.071 |
| L28S | -0.732 ± 0.16 |
| A68V | -0.071 ± 0.071 |
| F10N | -0.59 ± 0.31 |
| S62W | -0.009 ± 0.053 |
| K56T | -0.307 ± 0.067 |
| K52D | 0.075 ± 0.072 |
| E9T | -0.398 ± 0.077 |
| N53I | -0.027 ± 0.092 |
| L47T | -0.667 ± 0.23 |
| E4I | -0.145 ± 0.069 |
| K11G | -0.6 ± 0.11 |
| A54V | -0.756 ± 0.42 |
| E45W | -0.762 ± 0.12 |

| Variant | abundance fitness |
| --- | --- |
| T40M | -0.431 ± 0.38 |
| K58N | -0.619 ± 0.11 |
| E35F | -0.262 ± 0.1 |
| R13A | -0.179 ± 0.073 |
| K5P | -1.07 ± 0.16 |
| I41Q | -0.785 ± 0.33 |
| G18N | -0.969 ± 0.37 |
| F36I | 0.128 ± 0.14 |
| K11D | -1.02 ± 0.43 |
| K16F | -0.909 ± 0.21 |
| A27T | -0.18 ± 0.089 |
| E69D | -0.28 ± 0.16 |
| E4Q | -0.245 ± 0.27 |
| K56E | -0.132 ± 0.056 |
| F51D | -0.001 ± 0.1 |
| S34W | -0.562 ± 0.39 |
| I60E | -0.567 ± 0.21 |
| C55Y | 0.012 ± 0.08 |
| C42T | -0.02 ± 0.068 |
| V12P | -0.772 ± 0.48 |
| L61P | -0.728 ± 0.3 |

| Variant | abundance fitness |
| --- | --- |
| F51Y | 0.034 ± 0.06 |
| K5Q | -0.172 ± 0.064 |
| K16C | -0.121 ± 0.17 |
| L57P | -0.89 ± 0.3 |
| K5D | 0.048 ± 0.074 |
| T22K | 0.267 ± 0.095 |
| Q48W | -0.915 ± 0.36 |
| S50A | -0.307 ± 0.051 |
| N46K | -0.266 ± 0.11 |
| R1E | -0.348 ± 0.48 |
| L57W | -0.642 ± 0.18 |
| K56P | -0.626 ± 0.082 |
| L61E | -0.604 ± 0.18 |
| L49N | -0.818 ± 0.21 |
| V31Y | -0.339 ± 0.16 |
| L3M | -0.469 ± 0.13 |
| L17I | -0.709 ± 0.5 |
| F10G | -1.05 ± 0.17 |
| F6Y | -0.837 ± 0.1 |
| I41W | -0.502 ± 0.15 |
| K63V | -0.155 ± 0.072 |

| Variant | abundance fitness |
| --- | --- |
| K16T | -0.809 ± 0.15 |
| T40Q | -0.211 ± 0.075 |
| G33A | -0.555 ± 0.074 |
| S34C | -0.431 ± 0.24 |
| E9M | -0.11 ± 0.056 |
| I15Q | 0.042 ± 0.063 |
| L61D | -0.788 ± 0.28 |
| E2W | -0.541 ± 0.094 |
| A68I | 0.128 ± 0.45 |
| T39D | 0.118 ± 0.16 |
| E2P | -0.462 ± 0.19 |
| A30L | -0.217 ± 0.067 |
| T22E | 0.491 ± 0.13 |
| S34F | -0.387 ± 0.13 |
| A59R | -0.059 ± 0.044 |
| G18H | -0.742 ± 0.28 |
| Q48I | -0.758 ± 0.23 |
| E66M | -0.332 ± 0.096 |
| V31E | -0.013 ± 0.072 |
| E35N | -0.165 ± 0.13 |
